Results reported in publication PMC7141834 (Science Advances, 2020).

Molecular target: His-Bub3 (recombinant full-length Bub3) (mouse, UniProt Q9WVA3 1-326)
Assay: pull-down

Chain of His-Bub3 (recombinant full-length Bub3) (Q9WVA3 whole entry): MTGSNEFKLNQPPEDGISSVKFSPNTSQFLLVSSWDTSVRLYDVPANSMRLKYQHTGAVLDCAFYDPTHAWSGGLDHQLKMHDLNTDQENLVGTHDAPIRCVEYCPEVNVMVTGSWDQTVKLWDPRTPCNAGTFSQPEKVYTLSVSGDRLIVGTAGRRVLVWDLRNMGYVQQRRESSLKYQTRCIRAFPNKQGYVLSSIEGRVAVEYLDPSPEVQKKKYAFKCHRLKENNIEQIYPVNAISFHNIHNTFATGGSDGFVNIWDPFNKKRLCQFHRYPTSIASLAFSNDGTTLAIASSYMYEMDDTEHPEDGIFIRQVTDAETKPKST

- binding result: binds
B1: GST-Wapl(1-50) (domain or fragment, mouse, UniProt Q65Z40 1-50, looked up)
chain: MTSRFGKTYSRKGGNGSSKFDEVFSNKRTTLSTKWGETTFMAKLGQKRPN
